Measurements taken from patent US20260132200A1 (Regeneron, published 2026).
Changes are numbered by the printed parent chain. In names and notes the source's numbering stands. Like-named read-outs stand apart in the source and are kept apart here.

Key:
[1] = biological target: T1, human CD3 expressed on cells (Jurkat, a CD3+ human T-cell line; human T cells) (human, UniProt P07766 23-126; P04234 22-100); test: FACS on Jurkat cells
T1 construct: also called FACS JURKAT
T1 chain 1: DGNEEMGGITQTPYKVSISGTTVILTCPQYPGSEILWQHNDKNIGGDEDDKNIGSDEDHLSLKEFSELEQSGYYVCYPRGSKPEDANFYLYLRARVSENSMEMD
T1 chain 2: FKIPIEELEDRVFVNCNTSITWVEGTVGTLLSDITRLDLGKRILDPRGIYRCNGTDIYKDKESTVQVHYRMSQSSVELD
Method: (§1) CD20×CD3 bispecific antibodies and Control constructs, as set forth in Example 1, were tested via FACS for their ability to bind to Jurkat (CD3+, CD20− human T-cell line), Raji (CD3−, CD20+ Human B-cell line), or cynomolgus PBMCs (“mkT cells”).
(§2) FACS data was acquired using the following protocol: Cells at 2×10⁵ per well were incubated with serially diluted antibodies for 30 min on ice. Post incubation, cells were washed and appropriate secondary (Jurkat, RAJI cells) or cocktail of secondary antibodies (for cyno PBMC) was added and incubated for an additional 30 minutes. After incubation, cells were washed, re-suspended in cold PBS containing 1% BSA and analyzed by flow cytometry on a BD FACS Canto II. Jurkat and Raji cells were gated by side and forward scatters, while cynomolgus T cells were also gated in a CD2+CD4+ population. The EC₅₀s for cell binding titration were determined using Prism software with values calculated using a 4-parameter non-linear regression analysis.

[2] = biological target: T2, human CD20 expressed on Raji cells (CD3-, CD20+ human B-cell line) (human, UniProt P11836 1-297); test: cell-based or functional assay
T2 sequence: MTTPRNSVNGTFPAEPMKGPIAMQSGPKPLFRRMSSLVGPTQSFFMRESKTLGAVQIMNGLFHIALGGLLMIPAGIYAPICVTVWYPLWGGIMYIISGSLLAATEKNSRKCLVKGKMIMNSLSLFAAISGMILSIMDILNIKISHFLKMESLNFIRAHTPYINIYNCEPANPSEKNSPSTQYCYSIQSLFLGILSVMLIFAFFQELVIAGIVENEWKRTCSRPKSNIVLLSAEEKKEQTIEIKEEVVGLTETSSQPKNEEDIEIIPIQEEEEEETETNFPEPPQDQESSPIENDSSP

[3] = biological target: T3, cynomolgus monkey CD3 on monkey T cells (CD2+CD4+ cells of cynomolgus PBMCs) (cynomolgus monkey, UniProt Q95LI5 22-198); test: FACS on cynomolgus PBMCs, CD2+CD4+ T cells
T3 construct: whole, on cells; also called mkT cells; monkey PBMCs
Method: as §1, §2

[4] = biological target: T1, human CD3 expressed on cells (Jurkat, a …); test: FACS on Jurkat cells
Method: Binding was assessed using Jurkat cells (a CD3+ human T-cell line), while proliferation of Peripheral Blood Mononuclear Cells (PBMC) was assessed using ATP catalyzed quantification (CellTiter Glo®).
FACS data was acquired using the following protocol: Cells at 2×10⁵ per well were incubated with serially diluted antibodies for 30 min on ice. Post incubation, cells were washed and secondary antibody was added and incubated for an additional 30 minutes. After incubation, cells were washed, re-suspended in cold PBS containing 1% BSA and analyzed by flow cytometry with viable Jurkat cells gated by side and forward scatters. The EC₅₀s for cell binding titration were determined using Prism software with values calculated using a 4-parameter non-linear regression analysis.

[5] = biological target: T1, human CD3 expressed on cells (Jurkat, a …); test: cell-based or functional assay
[6] = biological target: T4, Soluble heterodimeric CD3 protein (hCD3-epsilon/hCD3-delta) with either a human Fc tag (hFcΔAdp/hFc) or a … (human, UniProt P07766 23-126; P04234 22-100); test: SPR Biacore 25C antigen-capture
T4 construct: Soluble construct; not shown: Fc tag: human (hFcΔAdp/hFc)
T4 chain 1: T1 chain 1
T4 chain 2: T1 chain 2
Method: (§3) Measurements were conducted on a T200 Biacore instrument.
In the antigen-capture format, heterodimeric CD3 protein was captured using a rabbit anti-mouse Fc or mouse anti-human Fc and the respective antibodies were injected over the captured antigen.
(§4) Kinetic association (kₐ) and dissociation (kd) rate constants were determined by processing and fitting the data to a 1:1 binding model using Scrubber 2.0 curve fitting software. Binding dissociation equilibrium constants (KD) and dissociative half-lives (t_{1/2}) were calculated from the kinetic rate constants as: KD (M)=kd/kₐ; and t_{1/2} (min) (ln 2/(60*kd). NT=not tested; NB=no binding observed.

[7] = biological target: T4, Soluble heterodimeric CD3 protein …; test: SPR Biacore 25C antibody-capture
Method: as §3
Heterodimeric CD3 protein was purified using the method described in Davis et al. (US2010/0331527).
as §4

[8] = biological target: T2, human CD20 expressed on Raji cells …; test: FACS on Raji cells
Method: as §1, §2

[9] = biological target: T2, human CD20 expressed on Raji cells …; test: cell-based or functional assay; remark: listed apart in the source
[10] = biological target: T1, human CD3 expressed on cells (Jurkat, a …); test: cell-based or functional assay
[11] = biological target: T2, human CD20 expressed on Raji cells …; test: cell-based or functional assay; remark: listed apart in the source

T3 sequence (Q95LI5 22-198): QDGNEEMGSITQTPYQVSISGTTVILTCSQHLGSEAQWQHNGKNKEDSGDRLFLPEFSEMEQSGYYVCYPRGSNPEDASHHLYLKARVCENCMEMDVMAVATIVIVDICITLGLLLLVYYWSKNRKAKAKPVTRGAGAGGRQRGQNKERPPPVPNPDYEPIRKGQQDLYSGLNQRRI

B1: Control IV: monoclonal anti-CD20 antibody 3B9-10 (antibody, V domains shown)
VH: EVQLVESGGGLVQPGRSLRLSCVASGFTFNDYAMHWVRQAPGKGLEWVSVISWNSDSIGYADSVKGRFTISRDNAKNSLYLQMHSLRAEDTALYYCAKDNHYGSGSYYYYQYGMDVWGQGTTVTVSS
VL: EIVMTQSPATLSVSPGERATLSCRASQSVSSNLAWYQQKPGQAPRLLIYGTSTRATGIPARFSGSGSGTEFTLTISSLQSEDFAVYYCQQYNNWPLTFGGGTKVEIK
notes: also called Control IV (anti-CD20)
With B1 the binding result [1] was “no binding”, the “CDC EC50, Raji” value [2] was 247 pM and the “CDC EC50, Raji SCID1” value [2] was 51900 pM. For the same binder, the “CDC EC50, Raji SCID2” value [2] was 229 pM, the “CDC EC50, Raji SCID3” value [2] was 5710 pM and the “CDC EC50, Raji SCID4” value [2] was 1140 pM. B1: no binding [3].

B2: H2M2709N (antibody, mouse IgG2, V domains shown)
VH: QVQLVESGGGVVQPGRSLRLSCAASGFTFRSFGMHWVRQAPGRGLEWVAMIYFDGKNKYYADSVRGRFTISRDNSKNTLYLEMSSLRAEDTAVYFCARGPGYNWLDPWGQGTLVTVSS
VL: B1 VL with A19V, V29I, S31R, T51A, I58V, Y86F, Y87H, W94R, K103E
notes: mouse IgG2 Fc (H2M), human variable regions
B2 was tested, and the EC50 [4] was 711 pM and the “U937 Cytotoxicity Human T-cells [M] (EC50)” value [5] was 3.47e-12 M.

B3: H2M2776N (antibody, V domains shown)
VH: B2 VH
VL: B1 VL with A19V, T20I, V29I, S31R, T51A, S52T, I58V, Y86F, W94R, K103E
notes: mouse IgG2 Fc, human variable regions
With B3 the Kd [6] was 140 pM, the “T½” value [6] was 52 min and the koff [6] was 0.000222 s⁻¹. For the same binder, the kon [6] was 1.58e+06 M⁻¹ s⁻¹, the Kd [7] was 10200 pM and the koff [7] was 0.000639 s⁻¹. The kon [7] was 62900 M⁻¹ s⁻¹.

B4: BS3/20-001 (bispecific antibody, V domains shown)
VH 1: B1 VH
VH 2: EVQLVESGGGLVQPGRSLRLSCAASGFTFDDYTMHWVRQAPGKGLEWVSGISWNSGSIGYADSVKGRFTISRDNAKKSLYLQMNSLRAEDTALYYCAKDNSGYGHYYYGMDVWGQGTTVTVAS
VL: AEIVMTQSPATLSVSPGERATLSCRASQSVSSNLAWYQQKPGQAPRLLIYGASTRATGIPARFSGSGSGTEFTLTISSLQSEDFAVYYCQHYINWPLTFGGGTKVEIK
notes: also called CD3×CD20 bispecific antibody
In the case of B4, the EC50 [8] is reported as 59900 pM, the EC50 [1] is reported as 38500 pM and the “CD25 upregulation on CD8+ T-cells, PBMC + Raji, EC50” value [9] is reported as 1.35 pM. The “CD25 upregulation on CD8+ T-cells, PBMC, EC50” value [9] was 112 pM, the “U937 Cytotoxicity Human T-cells [M] (EC50)” value [10] was 8.86e-11 M and the “Raji Cytotoxicity Human T-cells [M] (EC50)” value [11] was 5.63e-11 M. The “Raji Cytotoxicity Monkey T-cells [M] (EC50)” value [11] was 1.27e-12 M.

B5: BS3/20-003 (bispecific antibody, V domains shown)
VH 1: B1 VH
VH 2: B4 VH 2
VL: B1 VL with T51A, Q90H, N92I
For B5, the EC50 [8] was 92400 pM, the EC50 [1] was 56700 pM and the “CD25 upregulation on CD8+ T-cells, PBMC + Raji, EC50” value [9] was 0.338 pM. For the same binder, the “CD25 upregulation on CD8+ T-cells, PBMC, EC50” value [9] was 365 pM, the “U937 Cytotoxicity Human T-cells [M] (EC50)” value [10] was 8.1e-11 M and the “Raji Cytotoxicity Human T-cells [M] (EC50)” value [11] was 7.38e-11 M. The “Raji Cytotoxicity Monkey T-cells [M] (EC50)” value [11] was 4.36e-14 M.

B6: H2M2776N (antibody, mouse IgG2, V domains shown)
VH: B2 VH
VL: B1 VL with A19V, T20I, V29I, S31R, T51A, S52T, I58V, Y86F, W94R, K103E
notes: as for B2
For B6, the EC50 [4] was 491 pM and the “U937 Cytotoxicity Human T-cells [M] (EC50)” value [5] was 4.06e-12 M.

B7: H2M2704N (antibody, mouse IgG2, V domains shown)
VH: B2 VH with A23G, F32Y, A40T, F53Y, K56N, I70V, E82Q, V93L
VL: B1 VL with V29I, S31R, T51A, W94R, K103E
notes: as for B2
B7 was tested, and the EC50 [4] was 845 pM and the “U937 Cytotoxicity Human T-cells [M] (EC50)” value [5] was 2.49e-12 M.
